The text below walks through data of publication PMC8844822, “SARM1 is a multi-functional NAD(P)ase with prominent base exchange activity, all regulated bymultiple physiologically relevant NAD metabolites” (iScience, 2022).

The subject of this series is T1, NC(=O)c1ccc[n+]([C@@H]2O[C@H](COP(=O)([O-])OP(=O)(O)OC[C@H]3O[C@@H](n4cnc5c(N)ncnc54)[C@H](O)[C@@H]3O)[C@@H](O)[C@H]2O)c1.
T1 construct: a soluble fragment Val43-Ile300 with 6x-His tag at C terminus; 6xHis (C); purchased R&D Systems
The experiment in a line: NAD(P)ase activity by HPLC (kinetics, substrates, metal ions). The class given is biochemical, human. To be noted: other: hCD38, substrate as labelled, 25°C, pH 7.5.

Procedure: hSARM1 species were routinely assayed by the NAD/NADH-Glo^TM Assay (Promega) while both Aplysia cyclase and CD38 were assayed by fluorometry using ϵNAD ([Orsomando et al., 2000]). […] Other reagents used in addition to, or in place of those above are detailed in text or in figure legends, for example metal ions, free bases, dinucleotide analogues, mononucleotides, and ribosides. Assays were all carried out at 25°C except for temperature studies. Reactions were stopped by HClO4/K2CO3 and analysed by C18-HPLC as reported ([Mori et al., 2014]). Only the acid labile NADH and NADPH were treated with 1 N NaOH and neutralized using 1:1 vol of 1.73 M KH2CO3 while the highly hydrophobic metabolites vacor, VAD, VMN and VR, were analysed by a modified C18-HPLC method ([Buonvicino et al., 2018]). Reaction products were quantified from peak areas (see Figure 2A) based on coelution with standards (except for cyclic products from NAD analogues that were not available and were attributed based on UV-spectra and retention times as predicted). Rates were calculated as follows. Hydrolysis and cyclization were measured from product generation from the respective individual dinucleotide substrate used, e.g., free and cyclic ADP-ribosyl moieties from NAD (Figure 1B). A basal value for hydrolysis/cyclization was taken as sum of these latter two products. […]

With human CD38 (Homo sapiens), the Michaelis constant (Km) (commonly the concentration of substrate that gives half-maximal velocity) was determined as 10.4 ± 2.90 µM and the Vmax (commonly the top rate of the reaction or transport when substrate is in excess) turned out to be 6.65 µmol/min/mg.
